Data from patent publication US20170058053A1 (Xencor, published 2017).

T1: HM1.24 antigen on a Biacore chip (UniProt Q10589 49-161, limits assumed)
T1 construct: also called HM1.24 chip
T1 sequence (looked up): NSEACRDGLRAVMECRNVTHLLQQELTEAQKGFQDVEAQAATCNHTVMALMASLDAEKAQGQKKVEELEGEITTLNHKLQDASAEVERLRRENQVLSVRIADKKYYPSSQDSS

T2: FcγRIIb (human, UniProt P31994 43-217, limits assumed)
T2 construct: also called CD32b
T2 sequence (looked up): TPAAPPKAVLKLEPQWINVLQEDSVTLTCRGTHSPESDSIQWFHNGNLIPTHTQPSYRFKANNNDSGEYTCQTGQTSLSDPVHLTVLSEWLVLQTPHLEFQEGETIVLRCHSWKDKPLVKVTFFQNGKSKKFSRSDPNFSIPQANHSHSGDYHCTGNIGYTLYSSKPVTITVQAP


Key:
FcγRIIIa, V158 isoform [1] = molecular target: T3, FcγRIIIa, V158 isoform (human, UniProt P08637 17-208, limits assumed); experiment: SPR (Biacore); the reference value of native IgG1 (280 nM) is cited from the literature
T3 construct: no change against a named entry is printed; also called FcγRIIIa(158V); V158 FcγRIIIa
Method: Affinity of the mAb-Fv for FcγRIIIa was measured using Biacore®. The protein A capture format was used as described above, except that sensorgrams were obtained for a concentration series of receptor analyte in order to calculate an accurate affinity. […] Data were processed by zeroing time and response before the injection of receptor and by subtracting appropriate nonspecific signals (response of reference channel and injection of running buffer). The equilibrium constant was calculated by global fitting of binding data with a 1:1 Langmuir binding model using BIAevaluation software.
Similar binding experiments were carried out for the αHM1.24×αFcγRIIIa mAb-Fv. […] Data were processed by zeroing time and response before the injection of receptor and by subtracting appropriate nonspecific signals. The equilibrium constant was calculated by global fitting of binding data with a 1:1 Langmuir binding model using BIAevaluation software.

FcγRIIIa, V158 isoform [2] = molecular target: T3, FcγRIIIa, V158 isoform; experiment: SPR (Biacore), 9518 captured (protein A by the text, HM1.24 by the legend of FIG. 16), receptor concentration series, 1:1 Langmuir global fit
Method: (§1) Binding measurements were performed using a Biacore® 3000 instrument (Biacore®). Antibodies were captured onto an immobilized Protein A (Pierce) CM5 biosensor chip (Biacore®), generated using a standard primary amine coupling protocol. All measurements were performed in HBS-EP (0.01 M HEPES pH 7.4, 0.15 M NaCl, 3 mM EDTA, 0.005% v/v surfactant P20), and glycine buffer (10 mM glycine-HCl, pH 1.5) was used for the Protein A surface regeneration. All antibodies (50 nM in HBS-EP) were immobilized on the Protein A surface. Fc receptors were injected over antibody bound surface, followed by a dissociation phase. After each cycle, the Protein A surface was regenerated by injecting glycine buffer (pH 1.5). Data were processed by zeroing time and response before the injection of receptor and by subtracting appropriate nonspecific signals (response of reference channel and injection of running buffer).
Data were processed by zeroing time and response before the injection of receptor and by subtracting appropriate nonspecific signals. The equilibrium constant was calculated by global fitting of binding data with a 1:1 Langmuir binding model using BIAevaluation software.

[3] = molecular target: T1, HM1.24 antigen on a Biacore chip; experiment: SPR (Biacore), 100 nM mAb-Fv injected over a HM1.24 chip
FcγRIIb [4] = molecular target: T2, FcγRIIb; experiment: SPR (Biacore); the reference value of native IgG1 (2.3 µM) is cited from the literature
FcγRIIb [5] = molecular target: T2, FcγRIIb; experiment: SPR (Biacore), 9547 captured on protein A, receptor concentration series, 1:1 Langmuir global fit
Method: as §1

T3 sequence (P08637 17-208 F176V limits assumed): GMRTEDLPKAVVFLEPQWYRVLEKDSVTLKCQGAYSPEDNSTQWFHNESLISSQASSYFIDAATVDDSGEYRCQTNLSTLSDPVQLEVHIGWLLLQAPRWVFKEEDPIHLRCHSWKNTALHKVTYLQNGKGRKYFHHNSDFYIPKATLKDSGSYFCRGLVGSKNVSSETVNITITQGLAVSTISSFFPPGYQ

Binder | fold tighter than native IgG1 (FcγRIIIa, V158 isoform [1]) [fold] | Kd (FcγRIIIa, V158 isoform [2]) [nM] | binding result [3] | fold tighter than native IgG1 (FcγRIIb [4]) [fold] | Kd (FcγRIIb [5]) [nM]
9518 αHM1.24×αFcγRIIIa mAb-Fv (bispecific antibody, IgG1, mAb-Fv, IgG1 G236R/L328R, hetero-Fc TF-HA, Linker 2; copies: 1 + 1 + 2) heavy 1: QVQLVQSGAEVKKPGASVKVSCKASGYTFTPYWMQWVRQAPGQGLEWMGSIFPGSGDTRYSQSFQGQVTISADKSISTAYMELSRLRSDDTAVYYCARGLRRGGYYFDYWGQGTLVTVSSASTKGPSVFPLAPSSKSTSGGTAALGCLVKDYFPEPVTVSWNSGALTSGVHTFPAVLQSSGLYSLSSVVTVPSSSLGTQTYICNVNHKPSNTKVDKKVEPKSCDKTHTCPPCPAPELLRGPSVFLFPPKPKDTLMISRTPEVTCVVVDVSHEDPEVKFNWYVDGVEVHNAKTKPREEQYNSTYRVVSVLTVLHQDWLNGKEYKCKVSNKARPAPIEKTISKAKGQPREPQVTTLPPSREEMTKNQVSLTCLVKGFYPSDIAVEWESNGQPENNYKTFPPVLDSDGSFFLYSKLTVDKSRWQQGNVFSCSVMHEALHNHYTQKSLSLSPGKSSDKTHTSPPSPGGGGSGGGGSGGGGSGGGGQVTLKESGPGILQPSQTLSLTCSFSGFSLRTSGMGVGWIRQPSGKGLEWLAHIWWDDDKRYNPALKSRLTISKDTSSNQVFLKIASVDTADTATYYCAQINPAWFAYWGQGTLVTVSASGHHHHHH heavy 2: QVQLVQSGAEVKKPGASVKVSCKASGYTFTPYWMQWVRQAPGQGLEWMGSIFPGSGDTRYSQSFQGQVTISADKSISTAYMELSRLRSDDTAVYYCARGLRRGGYYFDYWGQGTLVTVSSASTKGPSVFPLAPSSKSTSGGTAALGCLVKDYFPEPVTVSWNSGALTSGVHTFPAVLQSSGLYSLSSVVTVPSSSLGTQTYICNVNHKPSNTKVDKKVEPKSCDKTHTCPPCPAPELLRGPSVFLFPPKPKDTLMISRTPEVTCVVVDVSHEDPEVKFNWYVDGVEVHNAKTKPREEQYNSTYRVVSVLTVLHQDWLNGKEYKCKVSNKARPAPIEKTISKAKGQPREPQVYTLPPSREEMTKNQVHLTCLVKGFYPSDIAVEWESNGQPENNYKTTPPVLDSDGSFALYSKLTVDKSRWQQGNVFSCSVMHEALHNHYTQKSLSLSPGKSSDKTHTSPPSPGGGGSGGGGSGGGGSGGGGDIVLTQSPASLAVSLGQRATISCKASQSVDFDGDSFMNWYQQKPGQPPKLLIYTTSNLESGIPARFSASGSGTDFTLNIHPVEEEDTATYYCQQSNEDPYTFGGGTKLELKSGDYKDDDDK light: DIVMTQSPLSLPVTLGQPASISCKASQDVNTAVAWYLQKPGKSPKLLIYSASNRYTGVPDRITGSGSGTDFTLKISRVEAEDVGVYYCQQHYSTPFTFGSGTKLEIKRTVAAPSVFIFPPSDEQLKSGTASVVCLLNNFYPREAKVQWKVDNALQSGNSQESVTEQDSKDSTYSLSSTLTLSKADYEKHKVYACEVTHQGLSSPVTKSFNRGEC | ~2.9 | 96 | binds |  | 
9547 αCD19×αFcγRIIb mAb-Fv (bispecific antibody, IgG1, mAb-Fv, IgG1 G236R/L328R, hetero-Fc TF-HA, Linker 3; also called 9547 mAb-Fv; copies: 1 + 1 + 2) heavy 1: EVQLVESGGGLVKPGGSLKLSCAASGYTFTSYVMHWVRQAPGKGLEWIGYINPYNDGTKYNEKFQGRVTISSDKSISTAYMELSSLRSEDTAMYYCARGTYYYGTRVFDYWGQGTLVTVSSASTKGPSVFPLAPSSKSTSGGTAALGCLVKDYFPEPVTVSWNSGALTSGVHTFPAVLQSSGLYSLSSVVTVPSSSLGTQTYICNVNHKPSNTKVDKKVEPKSCDKTHTCPPCPAPELLRGPSVFLFPPKPKDTLMISRTPEVTCVVVDVSHEDPEVKFNWYVDGVEVHNAKTKPREEQYNSTYRVVSVLTVLHQDWLNGKEYKCKVSNKARPAPIEKTISKAKGQPREPQVTTLPPSREEMTKNQVSLTCLVKGFYPSDIAVEWESNGQPENNYKTFPPVLDSDGSFFLYSKLTVDKSRWQQGNVFSCSVMHEALHNHYTQKSLSLSPGKGGGGSGGGGSGGGGSGGGGSGGGGSGGGGQVQLQQPVTELVRPGASVMLSCKASDYPFTNYWIHWVKQRPGQGLEWIGVIDPSDTYPNYNKKFKGKATLTVVVSSSTAYMQLSSLTSDDSAVYYCARNGDSDYYSGMDYWGQGTSVTVSSGSHHHHHH heavy 2: EVQLVESGGGLVKPGGSLKLSCAASGYTFTSYVMHWVRQAPGKGLEWIGYINPYNDGTKYNEKFQGRVTISSDKSISTAYMELSSLRSEDTAMYYCARGTYYYGTRVFDYWGQGTLVTVSSASTKGPSVFPLAPSSKSTSGGTAALGCLVKDYFPEPVTVSWNSGALTSGVHTFPAVLQSSGLYSLSSVVTVPSSSLGTQTYICNVNHKPSNTKVDKKVEPKSCDKTHTCPPCPAPELLRGPSVFLFPPKPKDTLMISRTPEVTCVVVDVSHEDPEVKFNWYVDGVEVHNAKTKPREEQYNSTYRVVSVLTVLHQDWLNGKEYKCKVSNKARPAPIEKTISKAKGQPREPQVYTLPPSREEMTKNQVHLTCLVKGFYPSDIAVEWESNGQPENNYKTTPPVLDSDGSFALYSKLTVDKSRWQQGNVFSCSVMHEALHNHYTQKSLSLSPGKGGGGSGGGGSGGGGSGGGGSGGGGSGGGGDILLTQSPAILSVSPGERVSFSCRTSQSIGTNIHWYQQRTNGFPRLLIKNVSESISGIPSRFSGSGSGTDFILSINSVESEDIADYYCQQSNTWPFTFGGGTKLEIKGSHHHHHH light: DIVMTQSPATLSLSPGERATLSCRSSKSLQNVNGNTYLYWFQQKPGQSPQLLIYRMSNLNSGVPDRFSGSGSGTEFTLTISSLEPEDFAVYYCMQHLEYPITFGAGTKLEIKRTVAAPSVFIFPPSDEQLKSGTASVVCLLNNFYPREAKVQWKVDNALQSGNSQESVTEQDSKDSTYSLSSTLTLSKADYEKHKVYACEVTHQGLSSPVTKSFNRGEC |  |  |  | ~52 | 44
